Assay [1] has as its target 猕猴IL-13Rα1 (转染的Ba/F3细胞) (猕猴 (Cyno)). Put plainly: FACS, transfected against parental Ba/F3 cells, negative control.
For assay [2] the target is unchanged. Put plainly: FACS on Ba/F3 cells transfected with cynomolgus IL-13Rα1, negative control.
Assay [3] has the same target. Put plainly: FACS, transfected against parental Ba/F3 cells.
For assay [4], the target named is 人IL-13Rα1 (表达人IL-13Rα1和人IL-4Rα的CHO细胞) (human) (UniProt P78552). Kind of assay: displacement of 125I-IL-13 from CHO cells expressing human IL-13Rα1 and IL-4Rα. In general terms: Displacement assays read how much labelled ligand stays bound in the presence of the test substance.
The target in assay [5] is IL-13Rα1 (人B细胞、单核细胞、TF-1细胞、HFL-1细胞、支气管平滑肌细胞上) (human) (UniProt P78552). Kind of assay: cell-based or functional assay.
The target of assay [6] is 猕猴IL-13Rα1 (转染的Ba/F3细胞) (猕猴 (Cyno)). Put plainly: FACS on Ba/F3 cells transfected with cynomolgus IL-13Rα1.
Assay [7] shares this target. Put plainly: FACS, transfected against parental Ba/F3 cells, secondary antibody alone. For orientation: Flow cytometry measures light scatter and fluorescence of single cells or particles in a stream.
For assay [8] the target is unchanged. Kind of assay: FACS on Ba/F3 cells transfected with cynomolgus IL-13Rα1, secondary antibody alone.
Assay [9] has the same target. Put plainly: FACS, transfected against parental Ba/F3 cells. This is another data set of the same source.
The target of assay [10] is T1, IL-13Rα1 (人B细胞、单核细胞、TF-1细胞、HFL-1细胞、支气管平滑肌细胞上) (human, UniProt P78552 22-427).
T1 sequence (looked up): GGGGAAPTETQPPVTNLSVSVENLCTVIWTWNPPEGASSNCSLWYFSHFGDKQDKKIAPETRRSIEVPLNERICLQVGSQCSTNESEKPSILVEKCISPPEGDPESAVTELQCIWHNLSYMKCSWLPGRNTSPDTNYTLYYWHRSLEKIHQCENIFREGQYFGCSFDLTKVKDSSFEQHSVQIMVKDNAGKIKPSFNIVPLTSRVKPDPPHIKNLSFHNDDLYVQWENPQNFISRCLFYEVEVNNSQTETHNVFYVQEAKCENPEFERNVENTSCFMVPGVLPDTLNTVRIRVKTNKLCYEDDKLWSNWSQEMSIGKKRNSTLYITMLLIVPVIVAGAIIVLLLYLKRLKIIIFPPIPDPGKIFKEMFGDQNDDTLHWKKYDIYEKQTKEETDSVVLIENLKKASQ
Put plainly: cell-based or functional assay.

Assay [11] addresses 猕猴IL-13Rα1 (转染的Ba/F3细胞) (猕猴 (Cyno)). Kind of assay: FACS on Ba/F3 cells transfected with cynomolgus IL-13Rα1, 10 μg/ml antibody.
Assay [12] has as its target T2, 从hIL-13Rα1:hFc嵌合蛋白切割的hIL-13Rα1的细胞外结构域 (human, UniProt P78552 22-343).
T2 construct: extracellular domain; also called 切割的hIL-13Rα1分子
T2 sequence (looked up): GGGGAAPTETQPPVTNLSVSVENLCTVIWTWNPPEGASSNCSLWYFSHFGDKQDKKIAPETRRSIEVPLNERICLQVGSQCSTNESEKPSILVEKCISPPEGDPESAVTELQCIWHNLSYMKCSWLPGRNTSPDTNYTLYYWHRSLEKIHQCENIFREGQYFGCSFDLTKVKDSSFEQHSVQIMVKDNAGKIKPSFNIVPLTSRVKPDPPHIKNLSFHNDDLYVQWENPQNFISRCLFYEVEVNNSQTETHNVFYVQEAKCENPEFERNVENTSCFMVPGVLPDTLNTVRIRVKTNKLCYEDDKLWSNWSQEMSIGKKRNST
Kind of assay: SPR Biacore 3000, C1 chip, antibody captured by anti-hFcγ, cleaved hIL-13Rα1 ECD as analyte, 1:1 Langmuir. In general terms: In SPR one partner is held on a chip, and binding of the other changes the refractive index at the surface.

Assay [13] deals with 猕猴IL-13Rα1 (转染的Ba/F3细胞) (猕猴 (Cyno)). Kind of assay: FACS on Ba/F3 cells transfected with cynomolgus IL-13Rα1, 10 μg/ml antibody. The source holds these as a separate data set.

Substitutions are numbered along the chain they refer to.

The record followed here is patent CN101098892A (HOFFMANN LA ROCHE, dated 2008).

One may read the IC50 as the concentration that gives 50% inhibition. A low value points to greater potency. What is called Kd is the free concentration of one partner at which half of the binding sites on the other are occupied at equilibrium, for simple one-to-one binding. The term koff denotes the rate constant with which the complex falls apart. Read a low koff as a long-lived complex. The kon is the rate constant with which the complex forms. Lower therefore signals slow association.

As to 正常山羊IgG (antibody), the 在Cyno IL-13Rα1存在下MFI的增加倍数 in assay [1] was 2.4. The MFIBa/F3 Cyno IL-13Rα1 in assay [2] is 5.7 MFI.

Regarding 正常人IgG1(Nordic) (antibody), the 在Cyno IL-13Rα1存在下MFI的增加倍数 in assay [1] is 6.7. Also, the MFIBa/F3 Cyno IL-13Rα1 in [2] stood at 10.2 MFI.

“多克隆山羊抗人IL-13Rα1抗体AF152(R&D Systems) (antibody)”: the 在Cyno IL-13Rα1存在下MFI的增加倍数 in [3] was 18. Also, in [4], the IC50 was found to be 84.8 nM. In assay [5], this molecule gave a B淋巴细胞上CD23上调的抑制 IC50 of 13.6 nM, an IL-4诱导的增殖的IC50 of 74.4 nM, an IL-13诱导的Stat-6磷酸化的抑制 IC50 of 18.6 nM and an IL-13诱导的TF-1细胞增殖的抑制 IC50 of 13.5 nM. In addition, in assay [5], the 人单核细胞上IL-13诱导的CD23上调的抑制 IC50 is 62.9 nM and the 抑制嗜曙红粒细胞趋化因子释放 平均IC50 came out at 11.5 nM. This molecule also displayed an MFIBa/F3 Cyno IL-13Rα1 in [6] of 21.2 MFI.

As for 仅抗人IgG-FITC (antibody), the 在Cyno IL-13Rα1存在下MFI的增加倍数 in assay [7] was 2.2. This molecule also gave an MFIBa/F3 Cyno IL-13Rα1 in assay [8] of 5.5 MFI.

B1: HuMab LC5002-002 (antibody, human IgG1, V domains shown)
VH: EVQLLESGGGLVQPGGSLRLSCAASGFTFNIYAMNWVRQAPGKGLEWVVISGRGITTYYADSVKGRFTISRDNSKNTLYLQMNSLRADDTAVYYCAKGSSSWTDFDYWGQGTLVTVSS
VL: DIQMTQSPSSLSASVGDRVTITCRASQGISRWVAWYQQKPEKAPKSLIYAASSLQSGVPSRFSGSGSGTDFTLTISSLQPEDFATYYCQQYNSYPWTFGQGTKVEIK
notes: Human IgG1 kappa antibody from a HuMab mouse hybridoma; also called hu-MAB<h-IL-13Ralpha>LC.5002-002 (DSM ACC2709)
With B1, in [9], the 在Cyno IL-13Rα1存在下MFI的增加倍数 turned out to be 79.8. Further, the “IL-13诱导的TF-1细胞增殖的抑制 IC50” value in assay [10] is 9.21 nM. In addition, in assay [11], the MFIBa/F3 Cyno IL-13Rα1 worked out at 83.7 MFI. In assay [12], this molecule had a Kd of 0.62 nM, a koff of 0.00065 s⁻¹ and a kon of 1.1e+06 M⁻¹ s⁻¹.

B2: HuMab LC5002-003 (antibody, V domains shown)
VH: EVQLLESGGDLIQPGGSLRLSCAASGFTFNIYAMNWVRQAPGKGLEWVSVISGRGITTYYADSVKGRFTISRDNSKNTLYLQMDSLRAEDTAVYYCAKGSSYWTDFDYWGQGTLVTVSS
VL: B1 VL with R31S, V33L
For the molecule B2, in [10], the “IL-13诱导的Stat-6磷酸化的抑制 IC50” value was 5.98 nM and the “IL-13诱导的TF-1细胞增殖的抑制 IC50” value stood at 3.07 nM. The 在Cyno IL-13Rα1存在下MFI的增加倍数 in assay [3] came out at 79. Moreover, the MFIBa/F3 Cyno IL-13Rα1 in assay [13] worked out at 82.4 MFI.
